Reference: the supplement of paper PMC12764529
± gives the half width of the 95% confidence interval.

Experiments:
[1] = folding stability dG unfold from trypsin proteolysis; higher = more stable
Procedure, shortened: (§1)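 How resistant each design was to proteolysis was captured as K50, inferred by Bayesian fitting of sequencing counts. Unfolding free energy was then derived relative to a sequence-predicted unfolded-state K50 and a shared folded-state K50, per protease or combined. Digestion used trypsin and chymotrypsin at 11 threefold-diluted concentrations plus a no-protease condition, on mini-proteins under 80 residues without cysteine in a PA-tagged cDNA display construct. Designs were kept only when AlphaFold2 dimer inter-PAE was above 15.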

[2] = folding stability dG unfold from chymotrypsin proteolysis; higher = more stable
Procedure, shortened: as §1

[3] = folding stability dG unfold (combined trypsin and chymotrypsin); higher = more stable
Procedure, shortened: as §1

Row | Sequence | folding stability dG unfold [1] | folding stability dG unfold [2] | folding stability dG unfold [3]
1 | SASSSFTLPGLKLEVETQKVSTFPTPDGTPVVLYETTIHFLEVPESLRAEGKPLSLESSVKKLKVVPLPSAG [r14_942_JUSTAS] | 0.277 ± 0.14 kcal/mol | 0.453 ± 0.33 kcal/mol | 0.391 ± 0.2 kcal/mol
2 | SAGEKKIKIEIKEIKPHENGYLSIKAKAYLEDGKKVAEVYEPYPPNLSLEELIEKVIERLEKEVKEKGESAG [r5_697_TrMRF] | 0.445 ± 0.039 kcal/mol | -0.207 ± 0.18 kcal/mol | 0.22 ± 0.21 kcal/mol
3 | SAGEIKIEIKKNKNGKLTIRITVKKKDGEEKEIEIEVPENMTAEELAKELEKKGFEITEIKSIEELLKSAGG [r19_263_TrROS_Hall] | 3.89 ± 0.34 kcal/mol | 3.83 ± 0.25 kcal/mol | 3.98 ± 0.6 kcal/mol
4 | SAGGSAGGKKYRVVVYNPETGEWVEVEEVEFDPETGEVRVRLPGSGKEVTIPKDYPVYLNPELDSAGGSAGG [r6_884_TrMRF] | 2.21 ± 0.035 kcal/mol | 3.163 ± 0.03 kcal/mol | 2.9 ± 0.045 kcal/mol
5 | SAGGSAGGSGKVLVLPLPGGTVEEVKEIAKEIKEKYPNAKVTTEVFPTPEGDLVAVVTLENPESAGGSAGGS [r12_425_TrMRF] | 0.307 ± 0.11 kcal/mol | -0.0724 ± 0.087 kcal/mol | 0.0277 ± 0.22 kcal/mol
6 | SAGGMVFTITVRNPDGTVVELPFDVSDVTITPKNGDLYITVAGGKVLTLKTDEVLDIDPAAIAAANAASAGG [r13_925_JUSTAS] | 0.901 ± 0.052 kcal/mol | 1.26 ± 0.14 kcal/mol | 1.13 ± 0.16 kcal/mol
7 | SAGGSAGGSAGMKVVVTLPDRTVTIPVNGTLDEAKEAVIKRAEELFGKPIPIEEITMSGESAGGSAGGSAGG [r11_1028_JUSTAS] | 0.677 ± 0.03 kcal/mol | -0.0243 ± 0.083 kcal/mol | 0.408 ± 0.11 kcal/mol
8 | SAGGSASIEIPVGDKPVRIEILSLEPEGERVRARAVVYFPDDPEYREISGDLTLEELIDAILEAIGSAGGSA [r15_944_TrMRF] | 1.3 ± 0.016 kcal/mol | 1.148 ± 0.011 kcal/mol | 1.21 ± 0.074 kcal/mol
9 | SAPSPKTPETLVFLSEEESEVVEERLSPSGKPFLVKRKRRFLRYRYVDEDGNVTSVGEREEPVEEELVLSAG [r14_934_JUSTAS] | 0.985 ± 0.094 kcal/mol | 0.231 ± 0.13 kcal/mol | 0.672 ± 0.087 kcal/mol
10 | SAGMKPEEVRVIEIPPGMTVEEIIEAIEKEGPLRIRVEGKELEFESKEDIEAAIRNAPEPVRIEVRRLSAGG [r19_95_TrROS_Hall] | 0.865 ± 0.04 kcal/mol | 1.05 ± 0.092 kcal/mol | 1 ± 0.089 kcal/mol
11 | SAGGSALKIMVEPDPEDGTVRVWFMIPNPENGEEFMVQAEIDPNGKIEDVEVYPNGNMIWITFKLPSAGGSA [r15_557_TrROS] | 2.4 ± 0.061 kcal/mol | 3.36 ± 0.037 kcal/mol | 2.96 ± 0.087 kcal/mol
12 | SAGGSAGGDTLTIVVEGMSAEELAALLKELFPDAEVTVTEVGEPRLVTVTVTVKVETEFELPEESAGGSAGG [r6_607_TrROS_Hall] | 2.13 ± 0.099 kcal/mol | 2.36 ± 0.087 kcal/mol | 2.28 ± 0.1 kcal/mol
13 | STLLEEAKAQAEAYLKAAGLELAPGDVVTLTVPYPGPLTLEITVHPGEKKLEITATDASTPTTHTLTFDESA [r9_426_JUSTAS] | 0.831 ± 0.039 kcal/mol | 1.16 ± 0.074 kcal/mol | 1.03 ± 0.079 kcal/mol
14 | SAGGSAGGSAGGSDKGQPRVEIPMPFFMPNPNYVIRITMEIDLDPNGQIREIDVEVYKFSAGGSAGGSAGGS [r4_75_TrROS] | 3.21 ± 0.096 kcal/mol | 4.67 ± 0.1 kcal/mol | 4.08 ± 0.14 kcal/mol
15 | SAGGSAGGSKTYKIKVEKLEDGTYKLKIIDKKTKKEYEITISKKNLPKIKEIKITKNGKIEIKSAGGSAGGS [r20_11_TrROS_Hall] | 1.73 ± 0.026 kcal/mol | 3.08 ± 0.071 kcal/mol | 2.75 ± 0.12 kcal/mol
16 | SAGGSAMRPLELENPNGREITIWYNPGEGHFQVEIERYEPPPNGKKKPQRHTFMVNSPEDLLDFIKSAGGSA [r15_31_TrROS] | 1.57 ± 0.046 kcal/mol | 1.6 ± 0.15 kcal/mol | 1.65 ± 0.19 kcal/mol
17 | SAGAMVTHTITVKIDPSELDKLEEILEKIKNSGPVKAIEPVSFEPGTGVYTVKVTADPATIKLVEEALKSAG [r5_193_JUSTAS] | 4.51 ± 0.28 kcal/mol | 4.14 ± 0.062 kcal/mol | 4.24 ± 0.069 kcal/mol
18 | SAGEKKLTEEEIKKLVEELLKKLKPGEKEKVTLEIELTLEDGRKVKIRITVEVKDGKLVVKIEVEELPSAGG [r19_220_TrROS_Hall] | 3.65 ± 0.27 kcal/mol | 3.64 ± 0.52 kcal/mol | 3.68 ± 0.46 kcal/mol
19 | SAGGSASPVLTTVTFPGSPEELEAYAAEVRAAGTLLSVSFSPSPDPSYYTITLQVRAPDGTYFTAESAGGSA [r15_177_JUSTAS] | 1.14 ± 0.03 kcal/mol | 1.55 ± 0.083 kcal/mol | 1.39 ± 0.061 kcal/mol
20 | SAGGGSMVTQTEFTLPDGTKVSESTLPDGTVTTTITDPTNPTVTTSPVRTVSPGPLSPANPALVAALSAGGS [r16_482_JUSTAS] | -1.09 ± 0.18 kcal/mol | -0.17 ± 0.18 kcal/mol | -0.317 ± 0.1 kcal/mol
21 | SAGGMPLDSPEVQRRLAALKEALAKAEALREAGLEVKVVSIEFDPETREVTIEVEVRPAPPPPPEEPSAGGS [r8_277_TrROS_Hall] | 1.81 ± 0.1 kcal/mol | 1.77 ± 0.083 kcal/mol | 1.92 ± 0.12 kcal/mol
